Test results reported in IntAct's records for PubMed 12522104.

B1: Peroxisome proliferator-activated receptor gamma coactivator 1-alpha (Homo sapiens), Q9UBK2 (parent)
chain: MAWDMCNQDSESVWSDIECAALVGEDQPLCPDLPELDLSELDVNDLDTDSFLGGLKWCSDQSEIISNQYNNEPSNIFEKIDEENEANLLAVLTETLDSLPVDEDGLPSFDALTDGDVTTDNEASPSSMPDGTPPPQEAEEPSLLKKLLLAPANTQLSYNECSGLSTQNHANHNHRIRTNPAIVKTENSWSNKAKSICQQQKPQRRPCSELLKYLTTNDDPPHTKPTENRNSSRDKCTSKKKSHTQSQSQHLQAKPTTLSLPLTPESPNDPKGSPFENKTIERTLSVELSGTAGLTPPTTPPHKANQDNPFRASPKLKSSCKTVVPPPSKKPRYSESSGTQGNNSTKKGPEQSELYAQLSKSSVLTGGHEERKTKRPSLRLFGDHDYCQSINSKTEILINISQELQDSRQLENKDVSSDWQGQICSSTDSDQCYLRETLEASKQVSPCSTRKQLQDQEIRAELNKHFGHPSQAVFDDEADKTGELRDSDFSNEQFSKLPMFINSGLAMDGLFDDSEDESDKLSYPWDGTQSYSLFNVSPSCSSFNSPCRDSVSPPKSLFSQRPQRMRSRSRSFSRHRSCSRSPYSRSRSRSPGSRSSSRSCYYYESSHYRHRTHRNSPLYVRSRSRSPYSRRPRYDSYEEYQHERLKREEYRREYEKRESERAKQRERQRQKAIEERRVIYVGKIRPDTTRTELRDRFEVFGEIEECTVNLRDDGDSYGFITYRYTCDAFAALENGYTLRRSNETDFELYFCGRKQFFKSNYADLDSNSDDFDPASTKSKYDSLDFDSLLKEAQRSLRR
B2: Peroxisome proliferator-activated receptor gamma coactivator 1-alpha (Homo sapiens), Q9UBK2 (parent)
chain: B1 chain
partner: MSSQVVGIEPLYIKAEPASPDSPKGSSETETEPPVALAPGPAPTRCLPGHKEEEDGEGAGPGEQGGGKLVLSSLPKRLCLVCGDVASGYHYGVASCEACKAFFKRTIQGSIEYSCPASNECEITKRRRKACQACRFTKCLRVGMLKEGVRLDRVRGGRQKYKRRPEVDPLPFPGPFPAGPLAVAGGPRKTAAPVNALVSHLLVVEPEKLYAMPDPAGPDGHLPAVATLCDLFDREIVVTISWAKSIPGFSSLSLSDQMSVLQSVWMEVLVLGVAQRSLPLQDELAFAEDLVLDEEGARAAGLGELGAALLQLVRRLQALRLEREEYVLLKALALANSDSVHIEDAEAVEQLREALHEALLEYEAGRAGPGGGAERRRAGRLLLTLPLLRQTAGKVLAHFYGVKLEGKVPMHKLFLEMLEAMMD

Key:
rxra_human RXRA, P19793 = variants of: B1; conditions: with rxra_human RXRA
Sequence of rxra_human RXRA, P19793 (P19793 whole entry): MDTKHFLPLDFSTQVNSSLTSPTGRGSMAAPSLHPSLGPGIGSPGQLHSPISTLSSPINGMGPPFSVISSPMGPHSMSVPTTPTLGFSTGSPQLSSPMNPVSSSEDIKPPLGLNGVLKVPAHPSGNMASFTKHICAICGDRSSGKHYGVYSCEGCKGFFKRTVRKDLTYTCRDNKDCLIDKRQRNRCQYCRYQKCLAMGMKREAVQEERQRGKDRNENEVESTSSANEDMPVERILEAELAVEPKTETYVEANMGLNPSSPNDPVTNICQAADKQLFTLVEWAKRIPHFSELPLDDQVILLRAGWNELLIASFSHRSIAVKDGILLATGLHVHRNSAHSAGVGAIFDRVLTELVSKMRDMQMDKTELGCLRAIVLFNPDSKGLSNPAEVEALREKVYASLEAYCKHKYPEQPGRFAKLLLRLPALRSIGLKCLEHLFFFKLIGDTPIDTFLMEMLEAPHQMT

esr1_human ESR1, P03372 = variants of: B1; conditions: with esr1_human ESR1, P03372
Sequence of esr1_human ESR1, P03372 (P03372 whole entry): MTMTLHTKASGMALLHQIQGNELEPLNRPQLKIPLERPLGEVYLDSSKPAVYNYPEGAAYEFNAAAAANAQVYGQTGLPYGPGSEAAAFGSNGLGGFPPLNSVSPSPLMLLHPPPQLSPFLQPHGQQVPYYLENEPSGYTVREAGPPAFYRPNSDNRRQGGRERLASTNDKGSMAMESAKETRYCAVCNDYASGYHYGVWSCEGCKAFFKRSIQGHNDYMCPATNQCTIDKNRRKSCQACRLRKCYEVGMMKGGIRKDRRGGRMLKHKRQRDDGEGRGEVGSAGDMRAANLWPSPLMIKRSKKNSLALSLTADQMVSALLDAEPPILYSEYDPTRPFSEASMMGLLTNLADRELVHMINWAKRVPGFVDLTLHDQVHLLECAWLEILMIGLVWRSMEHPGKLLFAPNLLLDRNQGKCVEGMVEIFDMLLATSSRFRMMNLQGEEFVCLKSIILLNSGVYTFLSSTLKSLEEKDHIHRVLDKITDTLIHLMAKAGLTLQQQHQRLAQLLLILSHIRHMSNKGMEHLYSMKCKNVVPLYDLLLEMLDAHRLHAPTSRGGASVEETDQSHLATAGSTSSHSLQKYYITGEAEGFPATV

err1_human ESRRA, P11474 [1] = variants of: B2; conditions: with err1_human ESRRA
err1_human ESRRA, P11474 [2] = variants of: B2; conditions: with err1_human ESRRA; remark: listed apart in the source

effect of a mutation on the interaction (rxra_human RXRA, P19793) | effect of a mutation on the interaction (esr1_human ESR1, P03372) | effect of a mutation on the interaction (err1_human ESRRA, P11474 [1]) | effect of a mutation on the interaction (err1_human ESRRA, P11474 [2]) | Variant
decreasing interaction strength | with no effect | – | – | L210A;L211A
disrupting interaction strength | disrupting interaction strength | – | – | L147A;L148A;L210A;L211A
disrupting interaction strength | decreasing interaction strength | – | – | L147A;L148A
– | – | decreasing interaction strength | with no effect | L147A;L148A
– | – | decreasing interaction strength | with no effect | L210A;L211A
– | – | disrupting interaction strength | – | L147A;L148A;L210A;L211A
